# Assay results taken from patent publication US20170165365A1 (SYMPHOGEN A S, published 2017).
# T1: human HER4 antigen (human, UniProt Q15303 26-649, limits assumed)
# T1 construct: Antigen coated for ELISA
# T1 sequence (looked up): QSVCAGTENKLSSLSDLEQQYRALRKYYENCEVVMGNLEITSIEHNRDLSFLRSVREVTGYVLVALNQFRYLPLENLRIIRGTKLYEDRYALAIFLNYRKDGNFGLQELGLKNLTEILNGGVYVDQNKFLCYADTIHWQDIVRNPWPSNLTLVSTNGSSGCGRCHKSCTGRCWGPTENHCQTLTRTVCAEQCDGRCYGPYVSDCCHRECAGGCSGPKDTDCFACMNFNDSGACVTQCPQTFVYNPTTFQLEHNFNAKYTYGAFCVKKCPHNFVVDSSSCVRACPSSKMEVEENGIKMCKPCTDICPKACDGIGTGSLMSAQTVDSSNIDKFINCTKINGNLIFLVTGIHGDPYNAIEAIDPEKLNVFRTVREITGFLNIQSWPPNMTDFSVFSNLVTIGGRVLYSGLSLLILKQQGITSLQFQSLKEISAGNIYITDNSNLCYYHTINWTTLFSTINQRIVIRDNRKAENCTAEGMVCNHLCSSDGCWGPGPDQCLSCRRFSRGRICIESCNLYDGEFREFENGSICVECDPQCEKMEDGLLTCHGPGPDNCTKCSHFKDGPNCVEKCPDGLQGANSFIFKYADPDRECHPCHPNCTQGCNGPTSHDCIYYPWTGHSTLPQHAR
# T2: murine HER4 antigen (mouse, UniProt Q61527 26-652, limits assumed)
# T2 construct: In-house antigen coated for ELISA; also called mouse HER4
# T2 sequence (looked up): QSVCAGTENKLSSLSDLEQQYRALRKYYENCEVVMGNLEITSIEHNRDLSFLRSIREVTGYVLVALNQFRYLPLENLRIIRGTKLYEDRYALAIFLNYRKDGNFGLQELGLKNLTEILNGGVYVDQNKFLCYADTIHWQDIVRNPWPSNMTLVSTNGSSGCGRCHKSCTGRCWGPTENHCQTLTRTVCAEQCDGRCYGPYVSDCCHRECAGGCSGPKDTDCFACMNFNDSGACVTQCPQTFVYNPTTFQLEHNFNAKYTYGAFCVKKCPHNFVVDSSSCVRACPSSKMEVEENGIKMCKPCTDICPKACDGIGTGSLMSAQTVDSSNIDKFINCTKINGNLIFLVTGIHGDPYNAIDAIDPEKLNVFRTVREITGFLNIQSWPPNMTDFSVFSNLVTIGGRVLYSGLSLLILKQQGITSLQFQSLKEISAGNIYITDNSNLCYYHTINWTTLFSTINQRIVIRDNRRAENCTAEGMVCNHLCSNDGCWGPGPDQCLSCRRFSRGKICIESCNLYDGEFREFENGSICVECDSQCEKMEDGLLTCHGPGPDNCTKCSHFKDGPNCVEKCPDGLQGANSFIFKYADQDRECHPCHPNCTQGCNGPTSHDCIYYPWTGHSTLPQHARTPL
# B1: humanized anti-HER2 antibody 10704 (antibody, V domains shown)
# VH: QVQLVQSGAEVKKPGASVKVSCKASGYTFTSHWMHWVRQAPGQGLEWMGNINPSSGGTNYNEKFKSRVTLTVDKSTSTAYMELSSLRSEDTAVYYCARAYYDFSWFVYWGQGTLVTVSS
# VL: DIQMTQSPSSLSASVGDRVTITCRSSQDISNYLNWYQQKPGKAVKLLMYISRLHSGVPSRFSGSGSGTDYTFTISSLQPEDIATYYCQQGNTLPLTFGGGTKVEIK
# B2: chimeric anti-HER2 antibody 4384 (antibody, V domains shown)
# VH: QVQLQQPGTELVKPGASVKLSCKASGYTFTSHWMHWVKQRPGQGLEWIGNINPSNGGTNYNEKFKSRATLTVDKASSTAYMQLSSLTSEDSAVYYCARAYYDFSWFVYWGQGTLVTVS
# VL: DIQMTQTSSSLSASLGDRVTISCRSSQDISNYLNWYQQKPDGTVKLLMYISRLHSGVPSRFSGSGSGTEYSLTISNLEQEDIATYFCQQGNTLPLTFGAGTKLELKR
# notes: light chain entry is full length
# B3: chimeric anti-EGFR antibody 1277 (antibody, V domains shown)
# VH: EVQLVESGGGLVKPGESLKLSCAASGFAFSYSDMSWVRQTPEKRLEWVAYMSSAGDVTFYSDTVKGRFTISRDNAKNTLYLQVSSLKSEDTAIYYCVRHRDVAMDYWGQGTSVTVS
# VL: DVVMTQTPLSLPVSLGDQASISCRSSQSLVHSNGNTYLHWYLQKPGQSPKLLIYKVSNRFSGVPDRFSGSGSGTDFTLKISRVEAEDLGVYFCSQSTHVPTFGGGTKLEIKR
# notes: the light chain entry is full length
# B4: humanized anti-HER2 antibody 11145 (antibody, V domains shown)
# VH: EVQLVESGGGLVKPGGSLRLSCAASGFTFSSYGMSWVRQAPGKGLEWVATISGGGSYTYYPDSVKGRFTISRDIAKSSLYLQMNSLRAEDTAVYYCARKGNYGNYGKLAYWGQGTTVTVSS
# VL: DIQMTQSPSSLSASVGDRVTITCRASENIYSNLAWYQQKPGKAPKLLIYAATNLATGVPSRFSGSGSGTDYTLTISSLQPEDFASYYCQHFWGTPWTFGQGTKLEIK
# B5: humanized anti-HER3 antibody 11052 (antibody, V domains shown)
# VH: QVQLQESGPGLVKPSQTLSLTCTVSGYSITSAYYWNWIRQFPGKGVEWMGYIGYSGRNTYNPSLKNRVTISRDTSKNQFSLKLSSVTAADTAVYYCSREGDYGYSDYWGQGTLVTVSS
# VL: DIQMTQSPSSLSASVGDRVTVTCRASQDINNYLNWYQQKPGKAVKLLIYYTSRLQSGVPSRFSGSGSGTDYTLTISSLQPEDFATYFCQQSETLPWTFGQGTKLEIK
# How the values were obtained:
# mouse HER3 antigen = target: T3, mouse HER3 antigen (mouse, UniProt Q61526 20-641, limits assumed); test: ELISA, coated mu HER3
# T3 construct: In-house antigen coated for ELISA; also called mouse antigen; murine HER3
# T3 sequence (Q61526 20-641 limits assumed): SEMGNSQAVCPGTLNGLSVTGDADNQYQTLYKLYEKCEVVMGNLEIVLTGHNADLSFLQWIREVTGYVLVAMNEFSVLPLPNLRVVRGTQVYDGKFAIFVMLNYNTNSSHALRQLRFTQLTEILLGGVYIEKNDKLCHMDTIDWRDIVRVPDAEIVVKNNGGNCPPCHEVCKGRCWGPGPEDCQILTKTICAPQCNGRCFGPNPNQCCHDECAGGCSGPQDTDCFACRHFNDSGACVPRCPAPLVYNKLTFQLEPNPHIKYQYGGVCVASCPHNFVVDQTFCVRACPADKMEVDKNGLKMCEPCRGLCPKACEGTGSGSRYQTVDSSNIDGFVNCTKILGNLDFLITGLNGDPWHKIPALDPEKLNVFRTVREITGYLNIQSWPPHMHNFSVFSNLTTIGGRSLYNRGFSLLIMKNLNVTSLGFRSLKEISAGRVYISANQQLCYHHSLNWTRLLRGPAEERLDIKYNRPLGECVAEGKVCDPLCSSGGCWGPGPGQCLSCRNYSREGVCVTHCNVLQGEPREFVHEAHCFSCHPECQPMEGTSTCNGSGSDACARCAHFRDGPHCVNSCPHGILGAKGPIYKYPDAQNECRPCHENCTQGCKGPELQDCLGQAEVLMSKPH
# Method: (§1) Antibody-antigen binding was measured by ELISA with coated antigens. Human antigens were obtained from Sino Biologicals. All other antigens were produced in-house by transient expression in CHO or HEK293 cells. Chimeric and humanized antibodies, as well as an isotype control antibody, were incubated with the coated antigens at different concentrations. After wash, bound antibodies were detected by HRP-(horse radish peroxidase)-conjugated secondary antibodies.
# human HER4 antigen = target: T1, human HER4 antigen; test: ELISA, coated hu HER4
# Method: as §1
# mouse EGFR antigen = target: T4, mouse EGFR antigen (mouse, UniProt Q01279 25-647, limits assumed); test: ELISA, coated mu EGFR
# T4 construct: In-house antigen coated for ELISA; also called mouse antigen; murine EGFR
# Method: as §1
# cynomolgus HER3 antigen [1] = target: T5, cynomolgus HER3 antigen (cynomolgus monkey, UniProt G7PIG5 20-643); test: ELISA, coated cy HER3
# T5 construct: In-house antigen; also called cynomolgus antigen
# T5 sequence (G7PIG5 entry or part of it): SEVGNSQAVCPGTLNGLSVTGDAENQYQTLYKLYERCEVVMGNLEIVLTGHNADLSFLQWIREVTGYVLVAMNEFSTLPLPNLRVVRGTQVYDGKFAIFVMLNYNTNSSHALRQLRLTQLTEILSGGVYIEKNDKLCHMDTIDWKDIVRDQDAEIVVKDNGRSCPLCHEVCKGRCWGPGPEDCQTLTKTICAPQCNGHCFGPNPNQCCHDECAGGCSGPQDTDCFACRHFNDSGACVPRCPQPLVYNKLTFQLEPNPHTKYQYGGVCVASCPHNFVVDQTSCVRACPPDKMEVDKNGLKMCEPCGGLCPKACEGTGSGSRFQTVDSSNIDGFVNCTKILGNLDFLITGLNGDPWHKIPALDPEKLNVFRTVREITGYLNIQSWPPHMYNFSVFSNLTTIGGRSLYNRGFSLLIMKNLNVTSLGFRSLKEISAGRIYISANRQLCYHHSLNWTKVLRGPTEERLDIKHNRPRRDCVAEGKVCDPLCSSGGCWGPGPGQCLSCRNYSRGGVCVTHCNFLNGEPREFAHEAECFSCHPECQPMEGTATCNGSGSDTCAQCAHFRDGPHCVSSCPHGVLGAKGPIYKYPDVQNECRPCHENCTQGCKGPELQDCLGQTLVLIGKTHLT
# Method: as §1
# [2] = target: T6, human HER3 antigen (Sino Biologicals) (human, UniProt P21860 20-643); test: ELISA, coated hu HER3
# T6 construct: Bought soluble antigen; also called human antigen
# Method: as §1
# mouse HER2 antigen = target: T7, mouse HER2 antigen (mouse, UniProt P70424 23-653, limits assumed); test: ELISA, coated mu HER2
# T7 construct: In-house antigen coated for ELISA; also called mouse antigen; murine HER2
# T7 sequence (P70424 23-653 limits assumed): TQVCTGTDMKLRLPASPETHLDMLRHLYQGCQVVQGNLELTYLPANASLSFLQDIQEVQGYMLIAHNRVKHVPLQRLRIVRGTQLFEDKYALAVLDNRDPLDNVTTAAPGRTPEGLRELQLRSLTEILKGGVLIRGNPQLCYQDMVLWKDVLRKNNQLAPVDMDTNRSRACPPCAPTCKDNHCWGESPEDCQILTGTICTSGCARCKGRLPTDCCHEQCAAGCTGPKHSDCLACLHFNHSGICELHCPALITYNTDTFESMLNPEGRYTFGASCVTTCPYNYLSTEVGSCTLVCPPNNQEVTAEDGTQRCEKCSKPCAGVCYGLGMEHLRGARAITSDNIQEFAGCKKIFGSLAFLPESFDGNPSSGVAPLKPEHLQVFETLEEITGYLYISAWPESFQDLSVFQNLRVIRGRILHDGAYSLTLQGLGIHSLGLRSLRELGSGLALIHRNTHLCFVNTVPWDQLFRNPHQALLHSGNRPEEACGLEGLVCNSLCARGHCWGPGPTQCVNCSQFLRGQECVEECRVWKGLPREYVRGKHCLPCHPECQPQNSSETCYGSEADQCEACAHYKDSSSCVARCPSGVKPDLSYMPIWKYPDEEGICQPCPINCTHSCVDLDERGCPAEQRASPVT
# Method: as §1
# [3] = target: T8, human EGFR antigen (Sino Biologicals) (human, UniProt P00533 25-645); test: ELISA, coated hu EGFR
# T8 construct: Bought soluble antigen; also called human antigen
# Method: as §1
# murine HER4 antigen = target: T2, murine HER4 antigen; test: ELISA, coated mu HER4
# Method: as §1
# cynomolgus EGFR antigen [4] = target: T9, cynomolgus EGFR antigen (cynomolgus monkey, UniProt A0A2K5WK39 25-645); test: ELISA, coated cy EGFR
# T9 construct: In-house antigen; also called cynomolgus antigen
# Method: as §1
# [5] = target: cynomolgus HER2 antigen (cynomolgus monkey); test: SPR (ProteOn XPR36), IgG captured by anti-human Fc, soluble monovalent antigen, 1:1 fit
# cynomolgus EGFR antigen [6] = target: T9, cynomolgus EGFR antigen; test: as above
# Method: (§2) Kinetic binding analysis of the purified humanized variants was performed on a ProteOn™ XPR36 biosensor (BioRad, USA) employing an IgG capture assay as described by Canziani et al. (Anal. Biochem. (2004) 325:301-307) that allows for measurement of antibody affinities of whole IgG molecules against soluble antigen under monovalent conditions. Briefly, approximately 5000 resonance units (RU) of a monoclonal mouse anti-human IgG Fc antibody (GE Healthcare, Denmark) was conjugated to a GLC chip surface (BioRad, USA) according to the manufacturer's instructions, followed by capture of individual antibodies of the invention or a negative control on the anti-Fc sensor surface. […] Next, 250 μl monovalent antigen (Sino Biologicals) was injected at a flow rate of 50 μl/min in serial threefold dilutions from 100 nM stock to generate response curves. The chip surface was regenerated between cycles by stripping the captured antibody/antigen complexes off the surface with a 10-second injection of 3 M MgCl₂ (GE Healthcare, Denmark) repeated three times. Finally, binding responses were fitted to a Langmuir 1:1 binding model for calculation of the on-rate (kon or ka), off-rate (koff or kd) and affinity (KD) constants using double referencing.
# [7] = target: T10, human HER2 antigen (Sino Biologicals) (human, UniProt P04626 23-652); test: ELISA, coated hu HER2
# T10 construct: Bought soluble antigen; also called human antigen
# Method: as §1
# [8] = target: T6, human HER3 antigen (Sino Biologicals); test: SPR (ProteOn XPR36), IgG captured by anti-human Fc, soluble monovalent antigen, 1:1 fit
# Method: as §2
# cynomolgus HER3 antigen [9] = target: T5, cynomolgus HER3 antigen; test: as above
# Method: as §2
Binder,binding result (mouse HER3 antigen),binding result (human HER4 antigen),binding result (mouse EGFR antigen),binding result (cynomolgus HER3 antigen [1]),binding result [2],binding result (mouse HER2 antigen),binding result [3],binding result (murine HER4 antigen),binding result (cynomolgus EGFR antigen [4]),Kd [5] [nM],koff [5] [s⁻¹],kon [5] [M⁻¹ s⁻¹],Kd (cynomolgus EGFR antigen [6]) [nM],binding result [7],Kd [8] [nM],koff [8] [s⁻¹],kon [8] [M⁻¹ s⁻¹],Kd (cynomolgus HER3 antigen [9]) [nM],koff (cynomolgus HER3 antigen [9]) [s⁻¹],kon (cynomolgus HER3 antigen [9]) [M⁻¹ s⁻¹]
B1,no binding (tested: 40 nM),no binding (tested: 40 nM),no binding (tested: 40 nM),no binding (tested: 40 nM),no binding (tested: 40 nM),no binding (tested: 40 nM),no binding (tested: 40 nM),no binding (tested: 40 nM),no binding (tested: 40 nM),–,–,–,–,–,–,–,–,–,–,–
B2,no binding (tested: 40 nM),no binding (tested: 40 nM),no binding (tested: 40 nM),no binding (tested: 40 nM),no binding (tested: 40 nM),no binding (tested: 40 nM),no binding (tested: 40 nM),no binding (tested: 40 nM),no binding (tested: 40 nM),2.9,0.0005,180000,–,–,–,–,–,–,–,–
B3,no binding (tested: 40 nM),no binding (tested: 40 nM),no binding (tested: 40 nM),no binding (tested: 40 nM),no binding (tested: 40 nM),no binding (tested: 40 nM),–,no binding (tested: 40 nM),–,–,–,–,0.59,no binding (tested: 40 nM),–,–,–,–,–,–
B4,no binding (tested: 40 nM),no binding (tested: 40 nM),no binding (tested: 40 nM),no binding (tested: 40 nM),no binding (tested: 40 nM),no binding (tested: 40 nM),no binding (tested: 40 nM),no binding (tested: 40 nM),no binding (tested: 40 nM),12,0.00063,53000,–,–,–,–,–,–,–,–
B5,no binding (tested: 40 nM),no binding (tested: 40 nM),no binding (tested: 40 nM),–,–,no binding (tested: 40 nM),no binding (tested: 40 nM),no binding (tested: 40 nM),no binding (tested: 40 nM),–,–,–,–,no binding (tested: 40 nM),0.18,0.00016,870000,0.19,0.00026,1.3e+06
